Several values for one entry are separate records, joined by “and”; a condition that tells them apart may be missing. Identical values can stand only once. Non-standard residues stand in square brackets, D forms with d. No end group written: not given here. pY = N[C@@H](Cc1ccc(OP(=O)(O)O)cc1)C(=O)O; Rhodamine = not defined here
How the values were obtained:
Test in all cases: peptide or protein array; SH2/PTB proteins spotted on aldehyde slides, rhodamine peptide titrated in buffer B (20 mM HEPES, 100 mM KCl, 0.1% Tween-20, 5 mM DTT, pH 7.8), 1 h at room temperature; replicate assays
Conditions in all cases: both partners purified
[1] = molecular target: T1, PTK6 SH2 domain (human, UniProt Q13882 78-170)
T1 construct: PTK6, human; source: bacterial expression, purified

[2] = molecular target: T2, DAPP1 SH2 domain (human, UniProt Q9UN19 35-129)
T2 construct: DAPP1, human; source: bacterial expression, purified
T2 sequence (looked up): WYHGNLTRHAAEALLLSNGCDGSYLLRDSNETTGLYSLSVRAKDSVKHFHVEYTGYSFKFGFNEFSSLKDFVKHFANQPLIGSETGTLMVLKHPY

[3] = molecular target: T3, ABL2 SH2 domain (human, UniProt P42684 173-263)
T3 construct: ABL2, human; source: bacterial expression, purified
T3 sequence (looked up): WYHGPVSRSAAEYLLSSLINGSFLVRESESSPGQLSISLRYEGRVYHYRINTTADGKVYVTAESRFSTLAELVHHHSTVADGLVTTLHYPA

[4] = molecular target: T4, SHF SH2 domain (human, UniProt Q7M4L6 323-418)
T4 construct: SHF, human; source: bacterial expression, purified
T4 sequence (looked up): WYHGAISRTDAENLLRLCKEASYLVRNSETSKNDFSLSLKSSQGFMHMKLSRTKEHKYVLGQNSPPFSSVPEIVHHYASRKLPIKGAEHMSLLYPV

[5] = molecular target: T5, TNS3 SH2 domain (human, UniProt Q68CZ2 1172-1282)
T5 construct: TNS3, human; source: bacterial expression, purified
T5 sequence (looked up): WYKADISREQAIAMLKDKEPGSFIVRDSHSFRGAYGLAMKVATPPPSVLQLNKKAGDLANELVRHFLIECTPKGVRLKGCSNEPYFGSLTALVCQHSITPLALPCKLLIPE

[6] = molecular target: T6, SYK C-terminal SH2 domain (human)
T6 construct: SYK, human; source: bacterial expression, purified

[7] = molecular target: SYK tandem SH2 domains (human)
[8] = molecular target: T7, PLCG2 N-terminal SH2 domain (human)
T7 construct: PLCG2, human; source: bacterial expression, purified
T7 sequence (P16885 whole entry, looked up): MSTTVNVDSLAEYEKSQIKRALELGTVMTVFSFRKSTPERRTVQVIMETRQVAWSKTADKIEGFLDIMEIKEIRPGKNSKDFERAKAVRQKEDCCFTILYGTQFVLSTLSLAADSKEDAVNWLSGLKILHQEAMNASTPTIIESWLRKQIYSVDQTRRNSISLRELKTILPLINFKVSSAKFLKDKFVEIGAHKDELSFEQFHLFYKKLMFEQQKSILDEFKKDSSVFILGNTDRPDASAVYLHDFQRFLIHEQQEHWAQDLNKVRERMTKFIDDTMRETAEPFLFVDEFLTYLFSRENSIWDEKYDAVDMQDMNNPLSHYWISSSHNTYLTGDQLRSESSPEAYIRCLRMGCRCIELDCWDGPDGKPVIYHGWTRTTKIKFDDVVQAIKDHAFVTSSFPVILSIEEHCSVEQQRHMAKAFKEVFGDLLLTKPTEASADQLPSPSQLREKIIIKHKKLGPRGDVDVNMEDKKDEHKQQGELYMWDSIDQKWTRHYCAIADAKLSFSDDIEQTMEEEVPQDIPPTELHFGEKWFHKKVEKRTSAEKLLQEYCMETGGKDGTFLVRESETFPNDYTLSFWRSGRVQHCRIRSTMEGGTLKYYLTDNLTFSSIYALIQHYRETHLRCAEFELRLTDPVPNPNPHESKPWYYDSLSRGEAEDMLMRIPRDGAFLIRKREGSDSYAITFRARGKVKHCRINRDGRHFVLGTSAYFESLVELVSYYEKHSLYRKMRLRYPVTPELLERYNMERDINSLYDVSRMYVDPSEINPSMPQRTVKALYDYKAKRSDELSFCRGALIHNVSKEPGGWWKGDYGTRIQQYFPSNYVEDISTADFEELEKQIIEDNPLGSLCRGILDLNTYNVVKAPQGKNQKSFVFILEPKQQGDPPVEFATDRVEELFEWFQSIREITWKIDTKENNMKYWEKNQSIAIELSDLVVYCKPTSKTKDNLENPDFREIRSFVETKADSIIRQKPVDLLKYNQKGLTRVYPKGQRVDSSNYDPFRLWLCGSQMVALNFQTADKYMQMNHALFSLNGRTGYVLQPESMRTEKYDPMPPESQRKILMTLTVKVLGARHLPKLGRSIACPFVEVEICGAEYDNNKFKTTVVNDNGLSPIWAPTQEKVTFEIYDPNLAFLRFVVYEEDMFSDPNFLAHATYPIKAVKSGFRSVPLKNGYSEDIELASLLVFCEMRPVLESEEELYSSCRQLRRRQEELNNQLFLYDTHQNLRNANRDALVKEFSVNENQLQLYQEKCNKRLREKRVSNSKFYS

T1 sequence (Q13882 78-170): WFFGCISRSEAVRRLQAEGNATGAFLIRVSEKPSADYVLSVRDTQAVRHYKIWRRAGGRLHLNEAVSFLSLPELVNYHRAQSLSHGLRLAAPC

B1: ErbB2 pY1127 phosphopeptide, rhodamine-labelled, for protein microarrays (peptide)
chain: Rhodamine-ETDG[pY]VAPLTCSD
modifications: reading uncertain
Kd [1]: 4180 nM and 1570 nM | Kd [2]: 2670 nM | Kd [3]: 17 nM and 14.6 nM | Kd [4]: 1020 nM | Kd [5]: 5.96 µM | Kd [6]: 1920 nM and 2390 nM | Kd [7]: 1300 nM and 957 nM | Kd [8]: 4.16 µM
